Ends that are not written are not given here. cellulose = not defined here
T1: full-length subunit H (Vma13p), N-terminal MBP fusion (S. cerevisiae, UniProt P41807 1-478)
T1 construct: V-ATPase subunit H (Vma13p), S. cerevisiae, 478 amino acids; Construct provided by the laboratory of Dr. Patricia Kane; also called MBP-H; source: E. coli, purified (amylose column; ultrafiltration or size exclusion chromatography); not shown: MBP, N-terminal, kept
T1 sequence (looked up): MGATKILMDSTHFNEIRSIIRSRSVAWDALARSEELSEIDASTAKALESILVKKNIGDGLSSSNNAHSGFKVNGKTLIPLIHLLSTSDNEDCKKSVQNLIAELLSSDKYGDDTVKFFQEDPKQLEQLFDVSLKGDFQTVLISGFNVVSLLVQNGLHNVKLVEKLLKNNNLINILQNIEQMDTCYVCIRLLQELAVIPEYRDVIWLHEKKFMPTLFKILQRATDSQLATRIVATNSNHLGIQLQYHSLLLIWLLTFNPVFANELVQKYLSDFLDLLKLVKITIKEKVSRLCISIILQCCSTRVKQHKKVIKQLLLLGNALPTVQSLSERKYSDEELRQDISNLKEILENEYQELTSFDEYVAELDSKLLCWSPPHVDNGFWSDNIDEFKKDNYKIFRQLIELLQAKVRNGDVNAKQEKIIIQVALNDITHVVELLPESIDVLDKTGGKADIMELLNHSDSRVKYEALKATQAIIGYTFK

T2: C-terminal domain of subunit H (HCT), N-terminal MBP fusion (S. cerevisiae, UniProt P41807 353-478)
T2 construct: V-ATPase subunit H (Vma13p), S. cerevisiae, C-terminal globular domain 353-478 (126 amino acids); Construct provided by the laboratory of Dr. Patricia Kane; also called MBP-HCT; source: E. coli, purified (amylose column; ultrafiltration or size exclusion chromatography); not shown: MBP, N-terminal, kept
T2 sequence (looked up): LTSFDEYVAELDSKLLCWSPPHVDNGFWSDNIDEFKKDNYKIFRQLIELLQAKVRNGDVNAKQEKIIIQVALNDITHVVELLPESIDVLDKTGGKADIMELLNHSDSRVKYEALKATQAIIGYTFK

T3: subunit E (Vma4p), N-terminal MBP fusion (S. cerevisiae, UniProt P22203 1-233)
T3 construct: V-ATPase subunit E (Vma4p), S. cerevisiae, 233 amino acids; also called MBP-E; source: E. coli, purified (amylose column); not shown: MBP, N-terminal, kept
T3 sequence (looked up): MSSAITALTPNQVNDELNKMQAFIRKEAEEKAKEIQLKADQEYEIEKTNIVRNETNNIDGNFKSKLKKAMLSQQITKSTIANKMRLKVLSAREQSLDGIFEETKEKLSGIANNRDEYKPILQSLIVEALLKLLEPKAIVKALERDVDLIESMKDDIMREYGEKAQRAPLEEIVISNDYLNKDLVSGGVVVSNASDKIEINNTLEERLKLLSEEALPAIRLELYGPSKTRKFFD

B1: F(41-60) (peptide, UniProt P39111 41-60, looked up)
peptide: QEGKTTKEEITDKFNHFTEE-cellulose
modifications: reading uncertain
notes: V-ATPase subunit F, S. cerevisiae, residues 41-60; source: synthetic peptide, spotted on glass slide array (Intavis)
B2: d(51-70) (peptide, UniProt P32366 51-70, looked up)
peptide: YGNFLSSVSSESLTTSLIQE-cellulose
modifications: reading uncertain
notes: V-ATPase Vo subunit d, S. cerevisiae, residues 51-70; source: synthetic peptide, spotted on glass slide array (Intavis)
B3: G(71-90) (peptide, UniProt P48836 71-90, looked up)
peptide: KAEAGVQGELAEIKKIAEKK-cellulose
modifications: reading uncertain
notes: V-ATPase subunit G (Vma10p), S. cerevisiae, residues 71-90; source: synthetic peptide, spotted on glass slide array (Intavis)
B4: a(51-70) (peptide, UniProt P32563 51-70, looked up)
peptide: FQRTFVNEIRRLDNVERQYR-cellulose
modifications: reading uncertain
notes: V-ATPase Vo subunit a (gene Vph1), S. cerevisiae, residues 51-70; source: synthetic peptide, spotted on glass slide array (Intavis)
B5: d(21-40) (peptide, UniProt P32366 21-40, looked up)
peptide: RNGLLSNNQYINLTQCDTLE-cellulose
modifications: reading uncertain
notes: V-ATPase Vo subunit d, S. cerevisiae, residues 21-40; source: synthetic peptide, spotted on glass slide array (Intavis)
B6: C(321-340) (peptide, UniProt P31412 321-340, looked up)
peptide: LPPHFNIKIIAVPPKNLSKC-cellulose
modifications: reading uncertain
notes: source: synthetic peptide, spotted on glass slide array (Intavis)
B7: a(41-60) (peptide, UniProt P32563 41-60, looked up)
peptide: FRDLNSKVRAFQRTFVNEIR-cellulose
modifications: reading uncertain
notes: V-ATPase Vo subunit a (gene Vph1), S. cerevisiae, residues 41-60; source: synthetic peptide, spotted on glass slide array (Intavis)
B8: d(131-150) (peptide, UniProt P32366 131-150, looked up)
peptide: GWFDTLPTLSVATDLESLYE-cellulose
modifications: reading uncertain
notes: as for B6
B9: a(521-540) (peptide, UniProt P32563 521-540, looked up)
peptide: AWHGTENALLFSNSYKMKLS-cellulose
modifications: reading uncertain
notes: as for B6
B10: a(131-150) (peptide, UniProt P32563 131-150, looked up)
peptide: IEVQKNDLEQYRFILQSGDE-cellulose
modifications: reading uncertain
notes: as for B6
B11: H(331) (peptide, UniProt P41807 331-350, looked up)
peptide: SDEELRQDISNLKEILENEY-cellulose
modifications: reading uncertain
notes: V-ATPase subunit H (Vma13p), S. cerevisiae; source: synthetic peptide, spotted on glass slide array (Intavis)
B12: d(181-200) (peptide, UniProt P32366 181-200, looked up)
peptide: RNKLYKAYLEDFYNFVTEEI-cellulose
modifications: reading uncertain
notes: as for B6
B13: B(421) (peptide, UniProt P16140 421-440, looked up)
peptide: GEEALSIEDKLSLEFLEKFE-cellulose
modifications: reading uncertain
notes: V-ATPase subunit B, S. cerevisiae; source: synthetic peptide, spotted on glass slide array (Intavis)
B14: a(151-170) (peptide, UniProt P32563 151-170, looked up)
peptide: FFLKGDNTDSTSYMDEDMID-cellulose
modifications: reading uncertain
notes: as for B6
B15: d(261-280) (peptide, UniProt P32366 261-280, looked up)
peptide: DFEGVRAALANVYEYRGFLE-cellulose
modifications: reading uncertain
notes: as for B6
B16: D(181-200) (peptide, UniProt P32610 181-200, looked up)
peptide: TENTIAYINSELDELDREEF-cellulose
modifications: reading uncertain
notes: as for B6
B17: a(681-700) (peptide, UniProt P32563 681-700, looked up)
peptide: EAQQLISAMDADDAEEEEVG-cellulose
modifications: reading uncertain
notes: as for B6

The binders below were run against T1, full-length subunit H (Vma13p), … (assay: peptide or protein array; 20-mer peptides linked at their C-terminal end to cellulose and spotted in duplicate on glass slides; blocked in 2% nonfat milk; purified probe at 4 µM in TBS for 1 hour at 4°C; bound probe detected through MBP or FLAG with HRP-coupled antibody (chemiluminescence); hits by ANOVA (p 0.05, Bonferroni) and HCL in MeV, score of at least 1 in 75% of the spots). Settings: both partners purified.

Binding result, binds:
B1
B2
B3
B4
B5
B6
B7
B8

Each binder was assayed against T2, C-terminal domain of subunit H (HCT), … in the same assay as above. Settings: both partners purified.

Binding result, binds:
B4
B9
B6
B7

The binders below were run against T3, subunit E (Vma4p), N-terminal MBP fusion in the same assay as above. Settings: both partners purified.

Binding result, binds:
B10
B1
B11
B2
B12
B3
B5
B13
B14
B15
B16
B8
B17
